Results from patent publication US20250121104A1 (FUSION PHARMACEUTICALS, published 2025).

B1: Compound E, [177Lu]-Compound C-anti-EGFR-cMET conjugate (bispecific antibody, V domains shown)
VH 1: QVQLVQSGAEVKKPGSSVKVSCKASGGTFSDNDFSWVRQAPGQGLEWMGAIVAVFRTETYAQKFQDRVKITADISTRTTYMELSSLRSEDTAVYYCARRLMSAISGPGAPLLMWGQGTLVTVSS
VL 1: QSALTQPRSVSGSPGQSVTISCTGTSSDVGGYNYVSWYQQHPGKAPKLMIYDVSKRPSGVPDRFSGSKSGNTASLTISGLQAEDEADYYCSSYTSSDTLEIFGGGTKLTVL
VH 2: QVQLVQSGAEVKKPGASVKVSCKASGYTFTDYYIHWVRQATGQGLEWMGWMNPNSGNTGYAQKFQGRVTMTRDTSISTAYMELSSLRSEDTAVYYCARGQGYTHSWGQGTMVTVSS
VL 2: DIQMTQSPSTLSASVGDRVTITCRASEGIYHWLAWYQQKPGKAPKLLIYKASSLASGVPSRFSGSGSGTEFTLTISSLQPDDFATYYCQQYSNYPPTFGGGTKLEIK
modifications: 177Lu-DOTA chelate-linker (Compound C) on lysine side chains, sites not stated; 177Lu-DOTA chelate-linker (Compound C) on lysine side chains, sites not stated; chelate-to-antibody ratio 5.3 for the whole antibody
notes: also called [177Lu]-DOTA-anti-EGFR-cMET
B2: B09-57 IgG (antibody, V domains shown)
VH: B1 VH 2
VL: B1 VL 2
notes: also called B09-GL; anti-cMET antibody
B3: RAA22 IgG (antibody, V domains shown)
VH: B1 VH 1
VL: B1 VL 1
notes: also called anti-EGFR antibody clone RAA22

Key:
[1] = target: T1, EGFR and cMET co-expressed on the surface of tumour cell lines (HCC827, HT29, H441, H1975) (UniProt P00533 25-1210; P08581 25-1390); test: saturation radioligand binding on H441 cells, 4 C, specific binding (4 µM cold antibody for non-specific), single-site fit
T1 construct: whole, on cells; Target of the bispecific molecules on cells that carry both receptors; the cell line of each value stands under assay; also called EGFR and c-MET expressing cell line; EGFR and/or cMET expressing cell lines
Procedure: (§1) The purpose of this assay was to ensure that the radioimmunoconjugates maintained the binding characteristics of the native antibody in EGFR and/or cMET expressing cell lines including HT29, H441, HT29, HCC827, and H1975. One day prior to the experiment, cells (1.5-2×10⁵) were seeded in 48-well microplates in 500 μL supplemented medium. At the start of the assay, cells were washed with PBS once and then treated with increasing concentrations of Compound E (0.05 nM to 100 nM) in the absence and presence of 4 μM cold antibody [total binding (TB) and non-specific binding (NSB) respectively]. Plates were incubated at 4° C. for about 3 hours with mild shaking. Following incubation, the cells were washed twice with PBS and were then lysed with 1% Triton-X-100. The lysates were transferred to gamma counting tubes and run along with Compound E standards on the Wizard 1470 gamma counter to determine the amount of radioactivity in counts per minute (CPM) for each lysate. The remaining lysate from each well (25 μL) was used for analyzing the protein content using a standard protein quantification assay.

[2] = target: T1, EGFR and cMET co-expressed on the …; test: saturation radioligand binding on HT29 cells, 4 C, specific binding (4 µM cold antibody for non-specific), single-site fit
Procedure: as §1

[3] = target: T1, EGFR and cMET co-expressed on the …; test: saturation radioligand binding on H1975 cells, 4 C, specific binding (4 µM cold antibody for non-specific), single-site fit
Procedure: as §1

[4] = target: T1, EGFR and cMET co-expressed on the …; test: saturation radioligand binding on HCC827 cells, 4 C, specific binding (4 µM cold antibody for non-specific), single-site fit
Procedure: as §1

mouse cMET (recombinant) = mouse cMET (recombinant) (mouse, UniProt P16056 25-929, limits assumed); test: SPR (BIAcore T200), antibody captured on anti-human IgG, soluble antigen as analyte
[5] = target: T2, cynomolgus monkey EGFR (recombinant, soluble monomeric) (cynomolgus monkey, UniProt P55245 25-645 (rhesus entry)); test: as above
T2 construct: also called cyno EGFR

mouse EGFR (recombinant) = target: T3, mouse EGFR (recombinant) (mouse, UniProt Q01279 25-647); test: as above
T3 construct: also called murine EGFR

[6] = target: T4, human EGFR (recombinant, soluble monomeric) (human, UniProt P00533 25-645); test: as above
T4 construct: also called EGFR antigen

Ron (CD136) = target: T5, Ron (CD136) (UniProt Q04912 25-957, limits assumed); test: ELISA, antigen coated at 1 µg/mL, antibody titrated from 10 µg/mL
T5 sequence (looked up): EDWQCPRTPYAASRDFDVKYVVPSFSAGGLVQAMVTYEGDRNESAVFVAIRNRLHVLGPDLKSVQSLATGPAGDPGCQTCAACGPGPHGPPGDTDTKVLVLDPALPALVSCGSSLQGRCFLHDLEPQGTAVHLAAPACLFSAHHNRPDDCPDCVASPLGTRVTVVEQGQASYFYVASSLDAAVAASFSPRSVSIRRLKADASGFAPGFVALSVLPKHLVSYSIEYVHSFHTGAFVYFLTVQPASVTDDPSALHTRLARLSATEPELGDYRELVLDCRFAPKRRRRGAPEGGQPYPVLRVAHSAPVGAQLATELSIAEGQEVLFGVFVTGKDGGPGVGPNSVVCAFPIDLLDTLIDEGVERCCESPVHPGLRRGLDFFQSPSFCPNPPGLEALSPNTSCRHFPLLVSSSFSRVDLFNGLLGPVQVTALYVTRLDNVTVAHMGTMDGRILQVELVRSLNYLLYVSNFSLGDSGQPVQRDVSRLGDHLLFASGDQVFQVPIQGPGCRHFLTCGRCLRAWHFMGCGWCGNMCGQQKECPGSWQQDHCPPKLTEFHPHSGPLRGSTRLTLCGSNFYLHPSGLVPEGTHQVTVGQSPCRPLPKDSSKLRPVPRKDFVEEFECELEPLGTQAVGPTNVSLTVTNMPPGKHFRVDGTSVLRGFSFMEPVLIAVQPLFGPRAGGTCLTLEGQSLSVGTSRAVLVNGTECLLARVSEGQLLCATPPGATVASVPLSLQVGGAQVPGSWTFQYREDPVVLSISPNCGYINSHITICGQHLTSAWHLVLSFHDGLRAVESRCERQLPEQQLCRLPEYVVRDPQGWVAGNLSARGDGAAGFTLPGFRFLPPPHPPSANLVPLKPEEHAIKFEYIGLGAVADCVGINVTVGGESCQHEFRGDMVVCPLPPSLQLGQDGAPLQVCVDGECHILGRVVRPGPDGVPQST
Procedure: (§2) Specificity for EGFR and cMET species paralogs and closely related family members was determined by ELISA. Briefly, antigen solutions were prepared in PBS at 1 μg/mL and 50 microliters was coated onto half area ELISA assay plates. Plates were washed and blocked with 1% BSA in PBS containing 0.005% Tween-20 (PBS-T) for one hour at room temperature. […] Wells were incubated with 50 microliters of the indicated primary antibodies diluted in PBS-T in a 1:3 dilution series, starting at 10 μg/mL and ending at 0.002 μg/mL, except for the HER4 binding mAb control, MAB1131, for which the series started at 1 μg/mL. The wells were washed 4 times in PBS-T, then 50 μl of goat anti-human Fab HRP-labeled secondary antibody, diluted 1:5000 in PBS-T, was added to each well and incubated for one hour at room temperature. […] 50 microliters of TMB stop solution was added to all wells and the absorbance was read at 450 nm on a SpectraMax M5 microplate reader. Data were analyzed in the SoftMax Pro 5 software and plotted using GraphPad Prism 7 graphing software.
(§3) To determine the species cross reactivity, ELISA assays were carried out as described above.

Semaphorin 3a = target: T6, Semaphorin 3a (UniProt Q14563 21-771, limits assumed); test: as above
T6 sequence (looked up): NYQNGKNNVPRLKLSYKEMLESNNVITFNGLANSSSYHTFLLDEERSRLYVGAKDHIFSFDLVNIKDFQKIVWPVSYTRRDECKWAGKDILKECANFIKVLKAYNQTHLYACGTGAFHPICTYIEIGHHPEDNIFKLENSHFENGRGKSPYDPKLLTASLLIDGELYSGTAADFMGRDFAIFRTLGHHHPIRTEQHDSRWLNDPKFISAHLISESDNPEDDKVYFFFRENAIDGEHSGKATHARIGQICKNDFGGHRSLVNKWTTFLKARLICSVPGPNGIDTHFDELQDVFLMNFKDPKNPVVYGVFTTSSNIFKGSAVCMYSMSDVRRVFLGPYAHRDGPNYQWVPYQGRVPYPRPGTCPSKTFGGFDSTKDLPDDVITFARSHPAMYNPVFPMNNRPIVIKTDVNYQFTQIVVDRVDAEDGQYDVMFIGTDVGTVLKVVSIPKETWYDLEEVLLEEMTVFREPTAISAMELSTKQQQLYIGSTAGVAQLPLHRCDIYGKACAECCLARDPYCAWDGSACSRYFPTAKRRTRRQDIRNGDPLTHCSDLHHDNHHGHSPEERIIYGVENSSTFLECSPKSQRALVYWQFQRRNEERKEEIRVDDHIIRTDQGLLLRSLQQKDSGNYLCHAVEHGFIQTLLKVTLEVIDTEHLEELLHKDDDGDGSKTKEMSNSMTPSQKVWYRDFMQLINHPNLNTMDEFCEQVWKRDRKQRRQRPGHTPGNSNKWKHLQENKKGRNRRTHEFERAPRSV
Procedure: as §2, §3

[7] = target: T7, cynomolgus monkey cMET (recombinant, soluble monomeric) (cynomolgus monkey, UniProt A0M8R7 25-932 (Papio anubis entry)); test: SPR (BIAcore T200), antibody captured on anti-human IgG, soluble antigen as analyte
T7 construct: also called cyno cMET

[8] = target: T8, human cMET (recombinant, soluble monomeric) (human, UniProt P08581 25-932); test: as above
T8 construct: also called cMET antigen; His-tagged cMET antigen
T8 sequence (P08581 25-932): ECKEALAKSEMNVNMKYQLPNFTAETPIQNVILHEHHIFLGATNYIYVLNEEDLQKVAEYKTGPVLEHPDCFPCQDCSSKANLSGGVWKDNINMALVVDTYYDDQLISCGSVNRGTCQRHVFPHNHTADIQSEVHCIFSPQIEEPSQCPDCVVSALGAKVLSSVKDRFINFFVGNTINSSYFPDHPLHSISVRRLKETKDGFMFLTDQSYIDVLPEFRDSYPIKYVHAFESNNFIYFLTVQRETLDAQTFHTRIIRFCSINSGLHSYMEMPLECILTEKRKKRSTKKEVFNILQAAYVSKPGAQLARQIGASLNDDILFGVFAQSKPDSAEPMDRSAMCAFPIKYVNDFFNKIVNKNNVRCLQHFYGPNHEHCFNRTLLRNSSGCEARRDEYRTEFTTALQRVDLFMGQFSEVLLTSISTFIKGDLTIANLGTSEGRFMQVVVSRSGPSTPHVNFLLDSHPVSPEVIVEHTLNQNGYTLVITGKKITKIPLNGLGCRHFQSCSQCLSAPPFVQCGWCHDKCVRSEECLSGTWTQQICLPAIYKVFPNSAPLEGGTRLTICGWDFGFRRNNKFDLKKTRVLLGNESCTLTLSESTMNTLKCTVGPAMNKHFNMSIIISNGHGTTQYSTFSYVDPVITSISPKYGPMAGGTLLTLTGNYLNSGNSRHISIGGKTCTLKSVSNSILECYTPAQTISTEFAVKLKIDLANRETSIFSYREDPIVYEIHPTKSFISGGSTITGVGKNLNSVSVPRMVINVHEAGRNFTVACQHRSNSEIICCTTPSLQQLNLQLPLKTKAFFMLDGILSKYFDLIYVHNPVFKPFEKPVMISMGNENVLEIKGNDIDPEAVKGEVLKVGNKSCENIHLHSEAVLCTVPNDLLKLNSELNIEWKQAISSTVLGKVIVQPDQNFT

mouse cMET (recombinant), sequence (P16056 25-929 limits assumed): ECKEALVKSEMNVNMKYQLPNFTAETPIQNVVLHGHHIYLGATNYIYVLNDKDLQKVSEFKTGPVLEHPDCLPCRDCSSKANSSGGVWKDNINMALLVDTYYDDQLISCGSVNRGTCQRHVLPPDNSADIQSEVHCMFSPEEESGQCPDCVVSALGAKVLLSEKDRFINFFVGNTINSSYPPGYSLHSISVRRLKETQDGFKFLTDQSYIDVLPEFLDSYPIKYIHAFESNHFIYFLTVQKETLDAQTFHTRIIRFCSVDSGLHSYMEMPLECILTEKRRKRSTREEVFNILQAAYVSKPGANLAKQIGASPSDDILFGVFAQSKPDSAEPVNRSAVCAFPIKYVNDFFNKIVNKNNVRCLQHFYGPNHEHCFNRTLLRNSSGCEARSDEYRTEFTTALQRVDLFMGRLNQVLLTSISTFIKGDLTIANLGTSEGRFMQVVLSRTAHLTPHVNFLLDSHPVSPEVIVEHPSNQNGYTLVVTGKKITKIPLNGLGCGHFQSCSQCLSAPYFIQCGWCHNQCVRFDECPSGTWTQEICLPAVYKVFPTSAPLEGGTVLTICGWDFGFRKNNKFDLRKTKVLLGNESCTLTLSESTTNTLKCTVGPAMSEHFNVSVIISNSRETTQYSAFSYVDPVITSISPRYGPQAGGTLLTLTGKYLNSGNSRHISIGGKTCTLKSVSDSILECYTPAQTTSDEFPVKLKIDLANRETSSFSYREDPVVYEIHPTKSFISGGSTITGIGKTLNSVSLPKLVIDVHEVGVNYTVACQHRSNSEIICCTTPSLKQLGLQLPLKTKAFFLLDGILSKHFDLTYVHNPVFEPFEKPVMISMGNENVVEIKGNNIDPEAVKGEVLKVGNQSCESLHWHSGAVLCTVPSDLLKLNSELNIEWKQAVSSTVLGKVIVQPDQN
T7 sequence (A0M8R7 25-932 S170N/I621T): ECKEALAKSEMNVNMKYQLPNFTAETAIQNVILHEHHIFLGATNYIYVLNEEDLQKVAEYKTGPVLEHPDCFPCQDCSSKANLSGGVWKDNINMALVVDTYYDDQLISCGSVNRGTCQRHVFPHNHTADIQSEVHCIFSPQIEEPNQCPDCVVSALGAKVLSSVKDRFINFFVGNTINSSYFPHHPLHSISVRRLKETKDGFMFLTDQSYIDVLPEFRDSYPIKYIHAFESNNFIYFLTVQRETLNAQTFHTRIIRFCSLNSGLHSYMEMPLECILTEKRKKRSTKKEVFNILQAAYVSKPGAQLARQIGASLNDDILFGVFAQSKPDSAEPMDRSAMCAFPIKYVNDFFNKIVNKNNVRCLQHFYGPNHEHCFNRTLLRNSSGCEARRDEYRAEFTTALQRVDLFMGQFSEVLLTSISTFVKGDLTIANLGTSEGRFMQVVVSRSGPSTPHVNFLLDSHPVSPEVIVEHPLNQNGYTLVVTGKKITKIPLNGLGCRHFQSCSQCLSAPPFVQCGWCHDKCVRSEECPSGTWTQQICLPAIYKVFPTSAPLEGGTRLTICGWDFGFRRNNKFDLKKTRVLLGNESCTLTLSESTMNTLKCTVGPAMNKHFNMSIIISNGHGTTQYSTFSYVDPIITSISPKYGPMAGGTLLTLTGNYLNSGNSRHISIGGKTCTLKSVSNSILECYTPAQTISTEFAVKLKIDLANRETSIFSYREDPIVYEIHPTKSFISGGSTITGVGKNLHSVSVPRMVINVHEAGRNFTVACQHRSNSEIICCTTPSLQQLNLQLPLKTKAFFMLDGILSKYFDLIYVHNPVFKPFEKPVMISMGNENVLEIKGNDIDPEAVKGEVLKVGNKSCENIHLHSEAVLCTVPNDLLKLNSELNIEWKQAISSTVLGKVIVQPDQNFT

| Binder | Kd [1] | Kd [2] | Kd [3] | Kd [4] | binding result (mouse cMET (recombinant)) | binding result [5] | binding result (mouse EGFR (recombinant)) | binding result [6] | binding result (Ron (CD136)) | binding result (Semaphorin 3a) | binding result [7] | binding result [8] |
| --- | --- | --- | --- | --- | --- | --- | --- | --- | --- | --- | --- | --- |
| B1 | ~15.5 nM | ~5.7 nM | ~6 nM | ~9.9 nM |  |  |  |  |  |  |  |  |
| B2 |  |  |  |  | no binding (tested: 200 nM) | no binding (tested: 200 nM) | no binding (tested: 200 nM) | no binding (tested: 200 nM) | no binding (tested: 10 µg/mL) | no binding (tested: 10 µg/mL) |  |  |
| B3 |  |  |  |  | no binding (tested: 200 nM) |  |  |  | no binding (tested: 10 µg/mL) | no binding (tested: 10 µg/mL) | no binding (tested: 200 nM) | no binding (tested: 200 nM) |
